Assay results published in US20210238304A1 (EISAI R AND D MANAGEMENT, published 2021).

Legend:
[1] = biological target: T1, human mesothelin (recombinant, soluble) (human, UniProt Q13421 296-598); test: SPR BIAcore, captured mAb, mesothelin analyte
[2] = biological target: T1, human mesothelin (recombinant, soluble); test: SPR BIAcore, parental mAb captured, mesothelin analyte
[3] = biological target: human mesothelin expressed on cells (human, UniProt Q13421 37-598); test: cell-based or functional assay
rat mesothelin = biological target: T2, rat mesothelin (rat, UniProt Q9ERA7 298-600, limits assumed); test: SPR BIAcore, captured mAb, mesothelin analyte
T2 sequence (looked up): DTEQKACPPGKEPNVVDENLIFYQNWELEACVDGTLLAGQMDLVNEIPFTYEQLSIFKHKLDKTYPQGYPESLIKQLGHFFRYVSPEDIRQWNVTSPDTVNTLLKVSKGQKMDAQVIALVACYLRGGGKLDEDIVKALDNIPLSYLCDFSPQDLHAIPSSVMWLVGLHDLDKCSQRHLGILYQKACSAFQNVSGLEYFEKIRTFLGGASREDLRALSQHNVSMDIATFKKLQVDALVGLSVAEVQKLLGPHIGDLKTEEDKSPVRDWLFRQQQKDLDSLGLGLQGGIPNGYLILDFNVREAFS
Procedure: (§1) Binding affinity: Binding measurements were performed in HBS-P+ buffer on a BIAcore T-100 instrument. Antibodies were diluted to 1 μg/mL in HBS-P+. Samples were centrifuged at 14,000×g for 5 min at room temperature and then supernatants were transferred to a new 1.5 mL BIAcore tube and capped. […] Anti-human antibody capture chip was prepared according to the manufacturer's protocol using a CMS chip with immobilization wizard. Final capture antibody levels were 8000-9000RU, in HBS-P+.
(§2) Antibodies were captured on flow cells 2-4 by sequential injections of individual ligand solutions for 90 sec at 10 μL/min. Analyte injection was done in a single-cycle kinetics manner by sequential injections of analyte solutions from low to high concentration for 240 sec each at 30 μL/min. Detection was 2-1, 3-1, 4-1. Double-referencing was performed by a sequence of identical ligand capture injections, followed by 5 buffer-only injections for 240 sec each, dissociation for 1800 sec, and regeneration as above. All ligands were analyzed for binding to mesothelin in duplicate. Kinetic analysis was performed using BIAEvaluations software using a 1:1 Langmuir fitting model. On-rate, off-rate, and affinity constants were averaged from duplicate runs.

[4] = biological target: T3, human mesothelin (recombinant, soluble) (human, UniProt Q13421 296-598, limits assumed); test: SPR BIAcore T-100, captured mAb, mesothelin 0.16-100 nM, single-cycle kinetics
T3 construct: Analyte in BIAcore, coat in ELISA (CHO-MT40 mesothelin), biotinylated on Octet tips; also called MSLN; CHO-MT40 mesothelin
Procedure: as §1, §2

[5] = biological target: T3, human mesothelin (recombinant, soluble); test: SPR BIAcore, run 4
Procedure: as §2, with “Anti-mesothelin antibody binding affinity to mesothelin was measured by BIAcore (BIAcore T-100, GE healthcare, #1426075), using a series S CMS chip. Antibody concentrations were adjusted to 1 μg/mL and mesothelin (50 μg) to 100 nM in 1×HBS-P+ buffer (GE Healthcare). Anti-human antibody capture chip was prepared according to the manufacturer's protocol using a CMS chip with immobilization wizard. Final capture antibody levels were 8000-9000 RU, in HBS-P+. Chip was prepared for assay with five cycles of 300 sec buffer injection followed by 30 sec regeneration, all at 30 μL/min across all four flow cells. Antibodies” for “Antibodies”

[6] = biological target: T3, human mesothelin (recombinant, soluble); test: SPR BIAcore, affinity against anetumab as reference
Procedure: as §1, §2

[7] = biological target: cynomolgus monkey mesothelin (cynomolgus monkey); test: SPR BIAcore T-100, captured mAb, mesothelin analyte, single-cycle kinetics
Procedure: as §1, §2

T3 sequence (Q13421 other isoform, or with tags, fused parts or gaps limits assumed): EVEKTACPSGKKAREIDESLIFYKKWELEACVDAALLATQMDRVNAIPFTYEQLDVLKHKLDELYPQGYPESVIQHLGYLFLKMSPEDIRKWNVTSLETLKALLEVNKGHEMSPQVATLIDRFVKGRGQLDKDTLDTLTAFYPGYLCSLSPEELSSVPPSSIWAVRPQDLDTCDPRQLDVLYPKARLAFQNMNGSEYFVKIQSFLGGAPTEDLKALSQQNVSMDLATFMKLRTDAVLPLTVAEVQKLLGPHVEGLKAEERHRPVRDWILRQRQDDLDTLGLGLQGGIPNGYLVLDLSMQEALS
T1 sequence (Q13421 other isoform, or with tags, fused parts or gaps): as the sequence (Q13421 other isoform, or with tags, fused parts or gaps limits assumed) above
Sequence of human mesothelin expressed on cells (Q13421 other isoform, or with tags, fused parts or gaps): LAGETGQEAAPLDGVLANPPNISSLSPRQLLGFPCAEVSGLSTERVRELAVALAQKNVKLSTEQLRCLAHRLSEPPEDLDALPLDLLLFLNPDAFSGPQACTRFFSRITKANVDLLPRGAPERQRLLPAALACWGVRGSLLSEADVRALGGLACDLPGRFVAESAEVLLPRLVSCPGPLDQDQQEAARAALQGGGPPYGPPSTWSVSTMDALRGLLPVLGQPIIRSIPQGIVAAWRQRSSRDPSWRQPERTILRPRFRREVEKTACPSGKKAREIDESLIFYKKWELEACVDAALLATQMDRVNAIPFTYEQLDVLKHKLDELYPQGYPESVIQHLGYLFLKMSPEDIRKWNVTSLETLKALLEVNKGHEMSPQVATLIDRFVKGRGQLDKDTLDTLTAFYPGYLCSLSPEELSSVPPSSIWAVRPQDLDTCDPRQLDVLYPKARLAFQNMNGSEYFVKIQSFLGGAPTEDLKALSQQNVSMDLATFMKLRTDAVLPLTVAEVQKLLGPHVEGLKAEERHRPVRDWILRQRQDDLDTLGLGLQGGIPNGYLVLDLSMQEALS

B1: 33O11 (rabbit-human chimeric anti-human mesothelin antibody) (antibody, V domains shown)
VH: QSVEESGGRLVTPGTPLTLTCTVSGISLSSDAISWVRQAPGKGLEYIGIINGGGNTYYASWAKGRFTISKTSTTVDLKITSPTTEDTATYFCARGIQHGGGNSDYYYYGMDLWGPGTLVTVSS
VL: EVLMTQTPSSVSAAVGDTVTIKCQASQSISSVLSWYQQKPGQPPKLLIYLASTLASGVPSRFSGSRSGTEFTLTISDLECDDAATYYCQTNYGTSSSNYGFAFGGGTEVVVK
With B1 the Kd [1] was 0.335 nM, the koff [1] was 0.000668 s⁻¹ and the kon [1] was 1.99e+06 M⁻¹ s⁻¹.

B2: 346C6 zu (humanized, CDR-grafted HC1-LC1) (antibody, V domains shown)
VH: EVQLVESGGGLVQPGGSLRLSCAASGFSLSSYAMIWVRQAPGKGLEWIGTISTGGITYYASWAKGRFTISRDNSKNTLYLQMNSLRAEDTAVYYCARGGYAASSAYYLPYYFDLWGQGTLVTVSS
VL: DIQMTQSPSSLSASVGDRVTITCQSSQSVYNNNNLAWYQQKPGKVPKLLIYLASTLASGVPSRFSGSGSGTDFTLTISSLQCEDAATYYCLGGCDDDADTFAFGGGTKVEIKR
Work on B2 yielded a Kd [2] of 8.9 nM, a koff [2] of 0.093 s⁻¹ and a kon [2] of 1.33e+07 M⁻¹ s⁻¹.

B3: BAY 94-9343 (anetumab ravtansine) (antibody, human IgG1, lambda, V domains shown)
VH: QVELVQSGAEVKKPGESLKISCKGSGYSFTSYWIGWVRQAPGKGLEWMGIIDPGDSRTRYSPSFQGQVTISADKSISTAYLQWSSLKASDTAMYYCARGQLYGGTYMDGWGQGTLVTVSS
VL: DIALTQPASVSGSPGQSITISCTGTSSDIGGYNSVSWYQQHPGKAPKLMIYGVNNRPSGVSNRFSGSKSGNTASLTISGLQAEDEADYYCSSYDIESATPVFGGGTKLTVLG
modifications: SPDB-DM4 on lysines, DAR 3.7 for the whole antibody, positions not given
With B3 the “EC50 (read off the curve): % killing of NCI-N87 cells, BAY 94-9343 alone” value [3] was roughly 0.8 nM and the “EC50 (read off the curve): % killing of NCI-N87 cells, BAY 94-9343 with 3 uM unconjugated anetumab” value [3] was roughly 0.8 nM.

B4: anetumab (antibody, human IgG1, lambda, V domains shown)
VH: B3 VH
VL: B3 VL
With B4 the binding result (rat mesothelin) was “no binding (tested: 100 nM highest analyte concentration)”, the Kd [4] was 7.26 nM and the koff [4] was 0.00112 s⁻¹. It also gave a kon [4] of 168000 M⁻¹ s⁻¹.

B5: 237N18 (rabbit-human chimeric anti-human mesothelin antibody) (antibody, V domains shown)
VH: QSLEESGGRLVAPGTPLTLTCTVSGFSLSSYHMSWVRQAPGEGLEWIGGITAMSRTYYASWAKGRFTISKTSTTVHLKITSPTTEDTATYFCAREPGFVSNIWGPGTLVTVSL
VL: AVVLTQTASPVSGVVGGTVTIKCQASQNIYSNLAWYQQKPGQRPKLLMYDASTLASGVPSRFKGSGSGTQFTLTISDLECADAATYYCQSISSVDNNVFGGGTEVVVK
Work on B5 yielded a Kd [1] of 3.38 nM, a koff [1] of 0.00428 s⁻¹ and a kon [1] of 1.27e+06 M⁻¹ s⁻¹.

B6: 201C15 zu (humanized, CDR-grafted HC1-LC1) (antibody, V domains shown)
VH: QVQLVESGGGLVQPGGSLRLSCSASGIDLSSYAMGWVRQAPGKGLEYIGTINIGGRVYYASWAKGRFTISRDNSKNTLYLQMNSLRAEDTAVYYCARYYNGGSYDIWGQGTLVTVSS
VL: DIQMTQSPSTLSASVGDRVTITCQASESIYRVLAWYQQKPGKAPKLLIYDTSTLASGVPSRFSGSGSGTEFTLTISSLQCDDAATYYCQGGYYADSYGIAFGGGTKVEIKR
B6 gave a Kd [2] of 4.2 nM, a koff [2] of 0.0011 s⁻¹ and a kon [2] of 310000 M⁻¹ s⁻¹.

B7: 345A12-HC15-LC4 (antibody, human IgG1, kappa, V domains shown)
VH: QVQLVESGGGVVQPGRSLRLSCAASGIDLSSYAMSWVRQAPGKGLEWIGVIDISGNRFYADWVKGRFTISRDNSKNTLYLQMSSLRAEDTAVYYCARVDSRAWGPFNLWGQGTLVTVSS
VL: DYQMTQSPSSLSASVGDRVTITCQASQSIFSYLAWYQQKPGKAPKLLIYDASDLASGVPSRFSGSGSGTDFTLTISSLQCEDAATYYCQQGYTRSDVDNAFGGGTKVEIKR
notes: Humanized rabbit antibody, human IgG1/kappa, unpaired Cys80 in the light chain; also called zu345A12-HC15-LC4
B7 showed a Kd [5] of 0.0779 nM, a koff [5] of 0.000112 s⁻¹ and a kon [5] of 1.44e+06 M⁻¹ s⁻¹. For the same binder, the binding result (rat mesothelin) was “no binding (tested: 100 nM highest analyte concentration)”, the “fold higher affinity than anetumab” value [6] was 40 fold and the Kd [7] was 88.6 nM. It also gave a koff [7] of 0.000751 s⁻¹, a kon [7] of 10500 M⁻¹ s⁻¹ and a Kd [4] of 0.195 nM. For the same binder, the koff [4] was 0.000285 s⁻¹ and the kon [4] was 1.46e+06 M⁻¹ s⁻¹.

B8: 111B10 zu (humanized, CDR-grafted HC1-LC1) (antibody, V domains shown)
VH: EVQLVESGGGLVQPGGSLRLSCAASGFSLNNYAMSWVRQAPGKGLEWIGSISTGGLAFYANWAKGRFTISRDNSKNTLYLQMNSLRAEDTAVYYCARNGGGSYIFYYFDLWGQGTLVTVSS
VL: DIQMTQSPSSLSASVGDRVTITCQASQSISSYLSWYQQKPGKAPKLLIYSASTLASGVPSRFSGSGSGTDFTLTISSLQCEDAATYYCQSYYDIGTSTFGGGTKVEIKR
For B8, the Kd [2] was 6.5 nM, the koff [2] was 0.003 s⁻¹ and the kon [2] was 510000 M⁻¹ s⁻¹.

B9: Xi-383I18(AuF) (antibody, V domains shown)
VH: SQSVEESGGRLVTPGTPLTLTCTVSGFSLSSYAMGWVRQAPGEGLEWIGTISTGGITYYASWAKGRFTISKTSTTVDLKITSPTTEDTATYFCARVGSSGYLFYFFNLWGQGTLVTVSS
VL: VFELTQTPSPVSAAVGGTVTIRCQASQNIKSYLAWYQQKPGQPPKLLIYEASILASGVSSRFKGSGSGTEFTLTISDLECADAATYYCQSYYAASSNAFGGGTEVVVK
Work on B9 yielded a Kd [1] of 0.28 nM, a koff [1] of 0.000281 s⁻¹ and a kon [1] of 1.01e+06 M⁻¹ s⁻¹.
